Reference: patent US20110118131A1 (published 2011)
Changes are numbered by the printed parent chain. Names and notes keep the numbering of the source.

T1: Ep-CAM (UniProt P16422 24-265, limits assumed)
T1 construct: Antigen of the Biacore analysis of ING-1 variants
T1 sequence (looked up): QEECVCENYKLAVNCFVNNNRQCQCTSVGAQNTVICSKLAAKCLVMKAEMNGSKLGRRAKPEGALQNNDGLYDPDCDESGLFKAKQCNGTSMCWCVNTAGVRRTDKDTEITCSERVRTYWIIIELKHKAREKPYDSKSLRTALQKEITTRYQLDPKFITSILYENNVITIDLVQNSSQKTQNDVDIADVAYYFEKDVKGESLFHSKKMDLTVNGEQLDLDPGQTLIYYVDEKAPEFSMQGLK

B1: ING-1 heavy chain D104F (Fab, V domains shown)
VH: QIQLVQSGPELKKPGETVKISCKASGYTFTKYGMNWVKQAPGKGLKWMGWINTYTEEPTYGDDFKGRFAFSLETSASTANLQINNLKSEDTATYFCARFGSAVFYWGQGTSVTVSS
VL: DIVMTQAAFSNPVTLGTSGSISCRSSKSLLHSNGITYLYWYLQKPGQSPQLLIYQMSNLASGVPDRFSSSGSGTDFTLRISRVEAEDVGVYYCAQNLELPRTFGGGTKLEMKR
B2: ING-1 heavy chain D104R (Fab, V domains shown)
VH: B1 VH with F104R
VL: B1 VL
B3: ING-1 heavy chain G33D (Fab, V domains shown)
VH: B1 VH with G33D, F104D
VL: B1 VL
B4: ING-1 heavy chain G33R (Fab, V domains shown)
VH: B1 VH with G33R, F104D
VL: B1 VL
B5: ING-1 heavy chain G100F (Fab, V domains shown)
VH: B1 VH with G100F, F104D
VL: B1 VL
B6: ING-1 heavy chain G100H (Fab, V domains shown)
VH: B1 VH with G100H, F104D
VL: B1 VL
B7: ING-1 heavy chain G33Q (Fab, V domains shown)
VH: B1 VH with G33Q, F104D
VL: B1 VL
B8: ING-1 heavy chain G100E (Fab, V domains shown)
VH: B1 VH with G100E, F104D
VL: B1 VL
B9: ING-1 heavy chain D104Y (Fab, V domains shown)
VH: B1 VH with F104Y
VL: B1 VL
B10: ING-1 heavy chain G33H (Fab, V domains shown)
VH: B1 VH with G33H, F104D
VL: B1 VL
B11: ING-1 heavy chain G33W (Fab, V domains shown)
VH: B1 VH with G33W, F104D
VL: B1 VL
B12: ING-1 heavy chain E57Q (Fab, V domains shown)
VH: B1 VH with E57Q, F104D
VL: B1 VL
B13: ING-1 heavy chain D104W (Fab, V domains shown)
VH: B1 VH with F104W
VL: B1 VL
B14: ING-1 heavy chain G33N (Fab, V domains shown)
VH: B1 VH with G33N, F104D
VL: B1 VL
B15: ING-1 heavy chain D104Q (Fab, V domains shown)
VH: B1 VH with F104Q
VL: B1 VL
B16: ING-1 heavy chain D104H (Fab, V domains shown)
VH: B1 VH with F104H
VL: B1 VL
B17: ING-1 heavy chain G100D (Fab, V domains shown)
VH: B1 VH with G100D, F104D
VL: B1 VL
B18: ING-1 heavy chain D104K (Fab, V domains shown)
VH: B1 VH with F104K
VL: B1 VL
B19: ING-1 heavy chain G33E (Fab, V domains shown)
VH: B1 VH with G33E, F104D
VL: B1 VL
B20: ING-1 heavy chain G33K (Fab, V domains shown)
VH: B1 VH with G33K, F104D
VL: B1 VL
B21: XPA23 heavy chain V50L (Fab, V domains shown)
VH: EVQLLESGGGLVQPGGSLRLSCAASGFTFSKYFMFWVRQAPGKGLEWVSLISPSGGMTRYADSVKGRFTISRDNSKNTLYLQMNSLRAEDTAVYYCARVGYGGNSDYWGQGTLVTVSS
VL: DIQMTQSPSSVSASVGDRLTIICRASQDINRWLAWYQQTPGNAPKLLIHSATSLQSGVPSRFSGSGSGTDFTLTINSLQPEDFATYYCQQADSFPLTFGGGTKVEIK
notes: Fab, periplasmic extract; also called C5A V50L
B22: XPA23 heavy chain Y32T (Fab, V domains shown)
VH: B21 VH with Y32T, L50V
VL: B21 VL
notes: Fab, periplasmic extract; also called C5A Y32T
B23: XPA23 heavy chain Y32P (Fab, V domains shown)
VH: B21 VH with Y32P, L50V
VL: B21 VL
notes: Fab, periplasmic extract; also called C5A Y32P
B24: XPA23 heavy chain Y107P (Fab, V domains shown)
VH: B21 VH with L50V, Y107P
VL: B21 VL
notes: Fab, periplasmic extract; also called C5A Y107P
B25: XPA23 heavy chain Y101T (Fab, V domains shown)
VH: B21 VH with L50V, Y101T
VL: B21 VL
notes: Fab, periplasmic extract; also called C5A Y101T
B26: XPA23 heavy chain Y107G (Fab, V domains shown)
VH: B21 VH with L50V, Y107G
VL: B21 VL
notes: Fab, periplasmic extract; also called C5A Y107G
B27: XPA23 heavy chain Y101I (Fab, V domains shown)
VH: B21 VH with L50V, Y101I
VL: B21 VL
notes: Fab, periplasmic extract; also called C5A Y101I
B28: XPA23 heavy chain V50T (Fab, V domains shown)
VH: B21 VH with L50T
VL: B21 VL
notes: Fab, periplasmic extract; also called C5A V50T
B29: XPA23 heavy chain Y107L (Fab, V domains shown)
VH: B21 VH with L50V, Y107L
VL: B21 VL
notes: Fab, periplasmic extract; also called C5A Y107L
B30: XPA23 heavy chain Y107V (Fab, V domains shown)
VH: B21 VH with L50V, Y107V
VL: B21 VL
notes: Fab, periplasmic extract; also called C5A Y107V
B31: XPA23 heavy chain Y101A (Fab, V domains shown)
VH: B21 VH with L50V, Y101A
VL: B21 VL
notes: Fab, periplasmic extract; also called C5A Y101A
B32: XPA23 heavy chain V99T (Fab, V domains shown)
VH: B21 VH with L50V, V99T
VL: B21 VL
notes: Fab, periplasmic extract; also called C5A V99T
B33: XPA23 heavy chain Y107I (Fab, V domains shown)
VH: B21 VH with L50V, Y107I
VL: B21 VL
notes: Fab, periplasmic extract; also called C5A Y107I
B34: XPA23 heavy chain Y101P (Fab, V domains shown)
VH: B21 VH with L50V, Y101P
VL: B21 VL
notes: Fab, periplasmic extract; also called C5A Y101P
B35: XPA23 heavy chain Y32L (Fab, V domains shown)
VH: B21 VH with Y32L, L50V
VL: B21 VL
notes: Fab, periplasmic extract; also called C5A Y32L
B36: XPA23 heavy chain Y107T (Fab, V domains shown)
VH: B21 VH with L50V, Y107T
VL: B21 VL
notes: Fab, periplasmic extract; also called C5A Y107T
B37: XPA23 heavy chain Y32G (Fab, V domains shown)
VH: B21 VH with Y32G, L50V
VL: B21 VL
notes: Fab, periplasmic extract; also called C5A Y32G
B38: XPA23 heavy chain Y101V (Fab, V domains shown)
VH: B21 VH with L50V, Y101V
VL: B21 VL
notes: Fab, periplasmic extract; also called C5A Y101V
B39: XPA23 heavy chain Y101L (Fab, V domains shown)
VH: B21 VH with L50V, Y101L
VL: B21 VL
notes: Fab, periplasmic extract; also called C5A Y101L
B40: XPA23 heavy chain Y107A (Fab, V domains shown)
VH: B21 VH with L50V, Y107A
VL: B21 VL
notes: Fab, periplasmic extract; also called C5A Y107A
B41: XPA23 heavy chain Y32V (Fab, V domains shown)
VH: B21 VH with Y32V, L50V
VL: B21 VL
notes: Fab, periplasmic extract; also called C5A Y32V
B42: XPA23 heavy chain V99A (Fab, V domains shown)
VH: B21 VH with L50V, V99A
VL: B21 VL
notes: Fab, periplasmic extract; also called C5A V99A

Columns and labels:
Ep-CAM = target: T1, Ep-CAM; experiment: Biacore, Fab periplasmic extract
IL-1β = target: T2, IL-1β (UniProt P01584 117-269); experiment: Biacore, Fab periplasmic extract
T2 construct: Antigen of XPA23

Binder	binding result (Ep-CAM)	fold difference in affinity against the original (IL-1β)	also measured
B1	no binding		
B2	no binding		
B3	no binding		
B4			fold difference in affinity vs original (Ep-CAM): 0.03 fold
B5	no binding		
B6	no binding		
B7			fold difference in affinity vs original (Ep-CAM): 0.06 fold
B8	no binding		
B9	no binding		
B10			fold difference in affinity vs original (Ep-CAM): 0.02 fold
B11	no binding		
B12	no binding		
B13	no binding		
B14	no binding		
B15	no binding		
B16	no binding		
B17	no binding		
B18	no binding		
B19	no binding		
B20	no binding		
B21		0.09 fold	

Binder	binding result (Ep-CAM)	fold difference in affinity against the original (IL-1β)	also measured
B22		0.8 fold	
B23		0.68 fold	
B24		0.04 fold	
B25		0.06 fold	
B26		0.1 fold	
B27		0.83 fold	
B28		0.03 fold	
B29		0.86 fold	
B30		0.93 fold	
B31		0.04 fold	
B32		0.1 fold	
B33		0.96 fold	
B34		0.04 fold	
B35		0.75 fold	
B36		0.83 fold	
B37		1 fold	
B38		0.09 fold	
B39		1.91 fold	
B40		0.83 fold	
B41		1.07 fold	
B42		0.03 fold	
